Consider one protein from paper PMC7033129, “Structural basis for substrate specificity and catalysis of α1,6-fucosyltransferase” (Nature Communications, 2020).

This data set deals with the molecule itself. Kind of data set: crystal structure; C2 crystals of HsFUT8 with 5 mM GDP and 5 mM G0, 1.95 Å; two molecules in the asymmetric unit, each forming a dimer with a molecule of the neighbouring asymmetric unit.

B1: human α1,6-fucosyltransferase (HsFUT8), residues 68–575 (enzyme, UniProt Q9BYC5 68-575, looked up)
chain: RIPEGPIDQGPAIGRVRVLEEQLVKAKEQIENYKKQTRNGLGKDHEILRRRIENGAKELWFFLQSELKKLKNLEGNELQRHADEFLLDLGHHERSIMTDLYYLSQTDGAGDWREKEAKDLTELVQRRITYLQNPKDCSKAKKLVCNINKGCGYGCQLHHVVYCFMIAYGTQRTLILESQNWRYATGGWETVFRPVSETCTDRSGISTGHWSGEVKDKNVQVVELPIVDSLHPRPPYLPLAVPEDLADRLVRVHGDPAVWWVSQFVKYLIRPQPWLEKEIEEATKKLGFKHPVIGVHVRRTDKVGTEAAFHPIEEYMVHVEEHFQLLARRMQVDKKRVYLATDDPSLLKEAKTKYPNYEFISDNSISWSAGLHNRYTENSLRGVILDIHFLSQADFLVCTFSSQVCRVAYEIMQTLHPDASANFHSLDDIYYFGGQNAHNQIAIYAHQPRTADEIPMEPGDIIGVAGNHWDGYSKGVNRKLGRTGLYPSYKVREKIETVKYPTYPEAEK
notes: α1,6-fucosyltransferase (FUT8), human, amino acid residues 68–575 (coiled-coil, catalytic and SH3 domains); Expressed from pHLSec-12His-GFP-TEV-HsFUT8 after the vector's secretion signal; His-GFP cut off with TEV protease before crystallisation; Crystallised with GDP and the N-glycan G0; source: HEK293F, transfected, secreted into the supernatant, purified (His-Trap, TEV cleavage, second …)
With B1, the binding result is reported as “binds”.
